The values that follow come from article PMC9832833, “Mitogen-activated protein kinase 14-mediated phosphorylation of MaMYB4 negatively regulates banana fruit ripening”.

For one series, the target named is T1, MBP-MaMPK14 (Musa acuminata (banana), UniProt A0A804IKS6 1-366).
T1 sequence: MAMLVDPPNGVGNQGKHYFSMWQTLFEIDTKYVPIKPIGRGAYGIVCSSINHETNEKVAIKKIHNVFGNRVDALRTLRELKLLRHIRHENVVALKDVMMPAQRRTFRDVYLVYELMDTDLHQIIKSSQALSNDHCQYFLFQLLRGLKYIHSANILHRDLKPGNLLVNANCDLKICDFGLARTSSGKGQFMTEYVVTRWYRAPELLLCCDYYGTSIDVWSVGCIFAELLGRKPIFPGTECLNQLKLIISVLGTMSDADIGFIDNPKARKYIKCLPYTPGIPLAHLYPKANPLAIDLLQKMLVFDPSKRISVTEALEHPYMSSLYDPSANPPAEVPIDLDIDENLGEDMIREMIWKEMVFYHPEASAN
Briefly: EMSA; MBP-MaMPK14 alone; EMSA buffer not stated (kit per cited Fan et al.); kinase preincubation in 20 mM Tris-HCl, 20 mM MgCl2, 100 mM NaCl, 10 mM ATP, 2 mM DTT, 0.5 h at 30 C; pH not. As to conditions: protein: recombinant; tags: MBP (N-term, pMAL-c2X); label: biotin; blunt.

The target in a further series is GST-MaMYB4 (Musa acuminata (banana), UniProt A0A804HW33 1-241). Briefly: EMSA; without MBP-MaMPK14; EMSA buffer not stated (kit per cited Fan et al.); kinase preincubation in 20 mM Tris-HCl, 20 mM MgCl2, 100 mM NaCl, 10 mM ATP, 2 mM DTT, 0.5 h at 30 C; pH not. Conditions: protein: recombinant; tags: GST (N-term, pGEX-4T-1); label: biotin; blunt.
Sequence of GST-MaMYB4 (A0A804HW33 entry or part of it): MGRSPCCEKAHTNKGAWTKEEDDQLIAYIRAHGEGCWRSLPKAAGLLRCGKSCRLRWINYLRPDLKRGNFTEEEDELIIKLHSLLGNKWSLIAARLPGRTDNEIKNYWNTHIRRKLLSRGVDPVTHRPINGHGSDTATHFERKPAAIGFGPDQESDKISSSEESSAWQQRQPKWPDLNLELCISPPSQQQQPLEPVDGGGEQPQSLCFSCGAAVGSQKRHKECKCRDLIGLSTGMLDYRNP

B1: MaACS1 promoter probe (dsDNA)
DNA 1: CCAAAAACAGGGTAGGTGGATGGCTTACATGCTCACCTAATAATTTATTT
DNA 2: AAATAAATTATTAGGTGAGCATGTAAGCCATCCACCTACCCTGTTTTTGG
In the case of B1, the results for the binding result with MBP-MaMPK14 and with GST-MaMYB4 were “no binding” and “binds”, respectively.
